Measured values taken from publication PMC5223209, “New insights into the GINS complex explain the controversy between existing structural models” (Scientific Reports, 2017).

Biological target: the molecule itself
Test: negative-stain electron microscopy; gel-filtration fractions of the low and the high MW peak stained and visualised by EM

B1: S. cerevisiae GINS complex (complex)
chain 1: MDINIDDILAELDKETTAVDSTKITQGSSSTTHRDANTIVGSSLDLNDKTQIYVSPQQDFSDLMKSWKNERCSPELLPYPHQLMKRLLNRISMQSQLIENISMGFLDMQNASNANPPMPNESKLPLLCMETELERLKFVIRSYIRCRLSKIDKFSLYLRQLNEDENSLISLTDLLSKDEIKYHDTHSLIWLKLVNDSILKYMPEELQAINDTEGSVNMIDEPDWNKFVFIHVNGPPDGKWNEDPLLQENEFGKPCYTVTIPDLKEEVELTIGSIYVMRYEVIRDLLRDDKVALI
chain 2: MYGDLGNKLVLEAKRTKQLYARSNQDVNLPMYHEDIIRNILKEVSNLRKNTEYLKEQQQLGMLDDKVAKCQYFVTLLCMERNKRCLLAYQRLRTDILDSMAWNNNGLDLMSSITFSQQDTNNLSHQEQEYLKEYCDLITDLKSGDLVDIDLSGSLVPPSDVFIDVRVLKDAGEIQTEYGVFNLIKDSQFFVRQSDVERLIQQGYLQKI
chain 3: MSLPAHLQQTFSPEEIQFIVENEPIKIFPRITTRQKIRGDDRGTGNHTRWQLITTDDKALNNMVAMRSTEVVLWIALLLKQQSKCSIVAPQWLTTKELDRKIQYEKTHPDRFSELPWNWLVLARILFNKAKDDFHDPIHELRGKIQDLREIRQIKVLKGLKYLNESHLQLDNLSLLEINELRPFITEIMDKLREIHTASLTAGTENDEEEFNI
chain 4: MGYYDIDDVLADGTEFPCKFQYDIPGLGYLENNPGRPITKNTKLSLPLWLARILAIVGGDEALVDEEPVPFVELLPPDMFSTKVMNAIKTDPVALDLHSINSHFFSLAIKWIMLFSEKELANVVSELLLQRAQELNHHASSLSIDLNADSTGKNSANTNIATSTFLLKLEEMEKEIYKKSHESYKDTKRWMFKK
notes: Sld5 subunit of the S. cerevisiae GINS complex; Psf1 subunit of the S. cerevisiae GINS complex; Psf2 subunit of the S. cerevisiae GINS complex; Psf3 subunit of the S. cerevisiae GINS complex; details may be in the Supplementary Information; also called yeast GINS complex; copies: + + +
binding result: binds
